For orientation: stoichiometry N means the number of molecules, sites or subunits per partner or assembly. The Km is the concentration of substrate that gives half-maximal velocity. The kcat is the maximal rate divided by the concentration of active sites.

Data set [1] has as its target Campylobacter jejuni FucX (Cj0485), C-terminally six-histidine tagged (Campylobacter jejuni NCTC11168). As to the kind of experiment: crystal structure; FucX pre-incubated with excess NADP+, space group P1, four monomers in the asymmetric unit; 23-26% PEG 4000, 0.08 M Tris pH 8.5, 0.15 M MgCl2, 20% glycerol; 2.15 Å.
Data set [2] shares this target. As to the kind of experiment: crystal structure; apo FucX, space group C222(1), two monomers in the asymmetric unit, tetramer generated by the crystallographic lattice; crystals grown at 18 °C in 3.4 M 1,6-hexanediol, 0.1 M Tris pH 8.5, 0.2 M MgCl2; 1.60 Å.
Data set [3] relates to C[C@@H]1OC(O)[C@@H](O)[C@H](O)[C@@H]1O. As to the kind of experiment: purified protein. As to conditions: NADP+ in excess, 50 mM Tris-HCl pH 7.5, 1 mM Mg2+, room temperature.
Data set [4] relates to NC(=O)c1ccc[n+]([C@@H]2O[C@H](COP(=O)(O)OP(=O)(O)OC[C@H]3O[C@@H](n4cnc5c(N)ncnc54)[C@H](O)[C@@H]3O)[C@@H](O)[C@H]2O)c1. As to the kind of experiment: purified protein. As to conditions: L-fucose in excess, 50 mM Tris-HCl pH 7.5, 1 mM Mg2+, room temperature, varied: cofactor.
In data set [5] the test system is NC(=O)c1ccc[n+]([C@@H]2O[C@H](COP(=O)(O)OP(=O)(O)OC[C@H]3O[C@@H](n4cnc5c(N)ncnc54)[C@H](OP(=O)(O)O)[C@@H]3O)[C@@H](O)[C@H]2O)c1. Briefly: purified protein. As to conditions: L-fucose in excess, 50 mM Tris-HCl pH 7.5, 1 mM Mg2+, room temperature, varied: cofactor.
Data set [6] has as its system OC1OC[C@@H](O)[C@@H](O)[C@@H]1O. As to the kind of experiment: purified protein. As to conditions: NADP+ in excess, 50 mM Tris-HCl pH 7.5, 1 mM Mg2+, room temperature.

“Campylobacter jejuni FucX (Cj0485), C-terminally six-histidine tagged (enzyme)”: the stoichiometry N in data set [1] and in data set [2] was 4 each time.
On to “FucX (Cj0485) (Campylobacter jejuni subsp. jejuni NCTC 11168 = ATCC 700819)”, for which the Km in data set [3] worked out at 233.8 ± 26.2 µM; in data set [4], 6050 ± 1080 µM; in data set [5], 9.9 ± 1.9 µM; in data set [6], 672.2 ± 82.8 µM. Further, the turnover number (kcat) is 26.3 ± 0.7 s⁻¹ in data set [3], 20.5 ± 2.1 s⁻¹ in data set [4], 16.5 ± 0.7 s⁻¹ in data set [5] and 18.9 ± 0.8 s⁻¹ in data set [6].

(Values after publication PMC6946681, “The gastrointestinal pathogen Campylobacter jejuni metabolizes sugars with potential help from commensal Bacteroides vulgatus” (Communications Biology, 2020).)
